From PMC12977500, “Mechanistic insights into SteAB regulation of cell wall hydrolase RipA in Mycobacterium tuberculosis” (mBio, 2026)

T1: MtRipACAT (catalytic domain of M. tuberculosis RipA, residues 261–472) (Mycobacterium tuberculosis, UniProt O53168 261-472)
T1 construct: also called MtRipA catalytic domain; NlpC/P60 catalytic domain; not shown: His6, N-terminal, cleaved; SUMO, N-terminal, cleaved
T1 sequence: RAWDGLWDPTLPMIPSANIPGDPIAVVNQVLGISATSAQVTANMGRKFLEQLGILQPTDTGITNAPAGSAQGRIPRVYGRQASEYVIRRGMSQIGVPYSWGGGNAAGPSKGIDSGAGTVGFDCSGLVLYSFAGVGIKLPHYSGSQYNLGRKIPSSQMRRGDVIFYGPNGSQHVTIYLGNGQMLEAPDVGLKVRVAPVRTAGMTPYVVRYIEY


Columns and labels:
[1] = target: the molecule itself; test: SEC; analytical SEC, Superdex-200 3.2/300, 25 mM Hepes pH 8, 150 mM NaCl; calibrated with BioRad gel filtration standard
[2] = target: T1, MtRipACAT (catalytic domain of M. …); test: BLI; biotinylated MtRipACC immobilised on streptavidin biosensors; Octet-Red384, 25°C; 25 mM HEPES pH 7.5, 150 mM NaCl, 5% glycerol, 1 mg/mL BSA, 0.05% Tween 20; MtSteB 200–3.125 μM or MtRipACAT 80–1.25 μM; steady-state signal, one-site binding model; apparent Kd; settings: both partners purified

Binder | stoichiometry N [1] | Kd [2] [µM]
CgSteBΔTM (soluble SteB of Corynebacterium glutamicum) (domain or fragment, The cloning of this construct is not described here; source: E. coli BL21 (DE3), purified ("pure protein sample")) APNLPENIDPNAPTSAELVEAETLAEVNAVQADQADSIIDHIVEDVVAGTLTDRPVLVMRTADAEESDVADVSWLLQQAGAINAGSITLEENFFSQDGADQLKSIVANTLPAGAQLSETQLDPGTHAGEALGAALLLNPETGEPLASTAERGLLLNVLRDNGYISYEDGTILPGQVIVMITGDSDGSGDGAFAAETQSLFARALDAQGSGVVVAGRIHTAADTGVIGRLRANPDAAENVSTIDSVNRTWGKMATVLSVREELAGRSGAFGSAASADAASPSLDGTAAAPAQ | 2 | –
MtRipACC (coiled-coil domain of M. tuberculosis RipA, residues 40–240) (domain or fragment, biotin (EZ-Link NHS-PEG4-Biotin, 20 molar excess) in the BLI assays only, Biotinylated and immobilised on streptavidin sensors for BLI; not biotinylated in the crystal of the complex; also called RipA coiled-coil domain; CC domain of RipA; not shown: His6, N-terminal, cleaved; SUMO, N-terminal, cleaved) DPQTDTIAALIADVAKANQRLQDLSDEVQAEQESVNKAMVDVETARDNAAAAEDDLEVSQRAVKDANAAIAAAQHRFDTFAAATYMNGPSVSYLSASSPDEIIATVTAAKTLSASSQAVMANLQRARTERVNTESAARLAKQKADKAAADAKASQDAAVAALTETRRKFDEQREEVQRLAAERDAAQARLQAARLVAWSSE | – | 6.8 ± 1.4
